Test results taken from the supplement of paper PMC9112550, “Optimization of the antimicrobial peptide Bac7 by deep mutational scanning” (BMC Biology, 2022).

system: Escherichia coli TOP10; test: shrunken log2 fold change of peptide-encoding DNA abundance (4.5 h post-induction vs induction); higher = less antimicrobial activity (less host growth inhibition); conditions: time post-induction: 4.5 h; library: site-saturation at positions 5, 18, 19, 20
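Also: peptides expressed intracellularly from a pBAD plasmid library in pooled LB shake-flask culture, induced with 0.3% L-arabinose, DNA abundance read by NGS, three biological replicates, DESeq2 with apeglm shrinkage.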

Sequence	shrunken log2 fold change
RRIRNRPPRLPRPRPRPCLSPRP	-0.043
RRIRCRPPRLPRPRPRPLKKPRP	-0.26
RRIRHRPPRLPRPRPRPEPAPRP	1.48
RRIRTRPPRLPRPRPRPKLYPRP	-0.363
RRIRKRPPRLPRPRPRPRGWPRP	0.792
RRIRIRPPRLPRPRPRPAENPRP	-0.0424
RRIRSRPPRLPRPRPRPFHRPRP	-0.154
RRIRCRPPRLPRPRPRPVVRPRP	-0.356
RRIRHRPPRLPRPRPRPPTFPRP	-0.0769
RRIRCRPPRLPRPRPRPYMLPRP	-1.06
RRIRLRPPRLPRPRPRPVKYPRP	-0.446
RRIRGRPPRLPRPRPRPPTRPRP	1
RRIRQRPPRLPRPRPRPNCDPRP	0.0233
RRIRRRPPRLPRPRPRPTIDPRP	-0.0234
RRIRHRPPRLPRPRPRPPSQPRP	-0.232
RRIRGRPPRLPRPRPRPYVVPRP	-0.0656
RRIRNRPPRLPRPRPRPSVFPRP	-0.342
RRIRPRPPRLPRPRPRPQIHPRP	-0.536
RRIRVRPPRLPRPRPRPQMTPRP	-0.0158
RRIRKRPPRLPRPRPRPWVHPRP	-0.0825
RRIRYRPPRLPRPRPRPINLPRP	-0.145
RRIRVRPPRLPRPRPRPPHGPRP	-0.317
RRIRCRPPRLPRPRPRPLDLPRP	-0.0926
RRIRARPPRLPRPRPRPNHWPRP	0.0522
RRIRGRPPRLPRPRPRPKLGPRP	1.12

Sequence	shrunken log2 fold change
RRIRQRPPRLPRPRPRPEMLPRP	0.0554
RRIRVRPPRLPRPRPRPCGIPRP	0.0878
RRIRWRPPRLPRPRPRPEGIPRP	-0.00186
RRIRPRPPRLPRPRPRPALEPRP	0.313
RRIRFRPPRLPRPRPRPCDFPRP	-0.255
RRIRDRPPRLPRPRPRPGLYPRP	0.199
RRIRPRPPRLPRPRPRPSDKPRP	-0.264
RRIRHRPPRLPRPRPRPMVWPRP	0.0787
RRIRWRPPRLPRPRPRPMERPRP	-0.0173
RRIRQRPPRLPRPRPRPGILPRP	-0.181
RRIRVRPPRLPRPRPRPVYFPRP	-0.334
RRIRTRPPRLPRPRPRPFMYPRP	-0.576
RRIRSRPPRLPRPRPRPDYTPRP	-0.342
RRIRLRPPRLPRPRPRPRGAPRP	0.425
RRIRMRPPRLPRPRPRPTCSPRP	0.134
RRIRQRPPRLPRPRPRPPIDPRP	0.00417
RRIRWRPPRLPRPRPRPNFYPRP	-0.232
RRIRLRPPRLPRPRPRPHTEPRP	-0.167
RRIRKRPPRLPRPRPRPNKHPRP	-0.122
RRIRARPPRLPRPRPRPFHMPRP	-1.05
RRIRLRPPRLPRPRPRPEDTPRP	-0.00686
RRIRRRPPRLPRPRPRPPAPPRP	1.13
RRIRTRPPRLPRPRPRPMTTPRP	0.000642
RRIRDRPPRLPRPRPRPEINPRP	0.648
RRIRMRPPRLPRPRPRPHKHPRP	-0.287

Sequence	shrunken log2 fold change
RRIRCRPPRLPRPRPRPDSYPRP	-0.286
RRIRTRPPRLPRPRPRPYKYPRP	-1.14
RRIRKRPPRLPRPRPRPNDRPRP	-0.0503
RRIRWRPPRLPRPRPRPAVMPRP	0.0971
RRIRIRPPRLPRPRPRPDDAPRP	-0.319
RRIRMRPPRLPRPRPRPQGPPRP	0.246
RRIRPRPPRLPRPRPRPRWFPRP	0.405
RRIRPRPPRLPRPRPRPSWIPRP	-0.179
RRIRARPPRLPRPRPRPKYGPRP	-0.0411
RRIRGRPPRLPRPRPRPHCRPRP	0.376
RRIRKRPPRLPRPRPRPIDWPRP	0.29
RRIRARPPRLPRPRPRPIASPRP	-0.0816
RRIRGRPPRLPRPRPRPYHMPRP	-0.345
RRIRYRPPRLPRPRPRPFRYPRP	-0.315
RRIRARPPRLPRPRPRPWDSPRP	-0.277
RRIRWRPPRLPRPRPRPSQEPRP	0.0253
RRIRPRPPRLPRPRPRPVCAPRP	0.396
RRIRMRPPRLPRPRPRPKFDPRP	0.217
RRIRDRPPRLPRPRPRPSWSPRP	-0.369
RRIRFRPPRLPRPRPRPTNNPRP	-0.644
RRIRVRPPRLPRPRPRPADIPRP	-0.235
RRIRQRPPRLPRPRPRPEAKPRP	0.0428
RRIRMRPPRLPRPRPRPNESPRP	0.923
RRIRPRPPRLPRPRPRPCSRPRP	0.0759
RRIRQRPPRLPRPRPRPHRNPRP	0.116

Sequence	shrunken log2 fold change
RRIRLRPPRLPRPRPRPISIPRP	0.111
RRIRHRPPRLPRPRPRPAKCPRP	-0.0799
RRIRWRPPRLPRPRPRPCSPPRP	-0.106
RRIRQRPPRLPRPRPRPYKLPRP	-0.603
RRIRDRPPRLPRPRPRPALSPRP	0.0869
RRIRERPPRLPRPRPRPVIIPRP	-0.634
RRIRLRPPRLPRPRPRPLEVPRP	-0.0281
RRIRLRPPRLPRPRPRPMLIPRP	-0.0317
RRIRYRPPRLPRPRPRPEFCPRP	-0.258
RRIRGRPPRLPRPRPRPGRQPRP	0.654
RRIRFRPPRLPRPRPRPADYPRP	-0.207
RRIRTRPPRLPRPRPRPEKGPRP	-0.0355
RRIRLRPPRLPRPRPRPLYKPRP	-0.328
RRIRRRPPRLPRPRPRPFNEPRP	-0.846
RRIRPRPPRLPRPRPRPPMRPRP	0.833
RRIRLRPPRLPRPRPRPLQIPRP	-0.092
RRIRFRPPRLPRPRPRPDGNPRP	-0.174
RRIRHRPPRLPRPRPRPGYAPRP	-0.163
RRIRGRPPRLPRPRPRPEKFPRP	0.716
RRIRWRPPRLPRPRPRPKRVPRP	0.383
RRIRIRPPRLPRPRPRPHVHPRP	-0.165
RRIRERPPRLPRPRPRPGISPRP	-0.017
RRIRTRPPRLPRPRPRPPPMPRP	0.54
RRIRMRPPRLPRPRPRPNLMPRP	-0.126
RRIRRRPPRLPRPRPRPWRGPRP	0.215

Sequence	shrunken log2 fold change
RRIRCRPPRLPRPRPRPNADPRP	0.342
RRIRHRPPRLPRPRPRPGIFPRP	-0.24
RRIRERPPRLPRPRPRPVIWPRP	0.254
RRIRARPPRLPRPRPRPNQEPRP	-0.000902
RRIRYRPPRLPRPRPRPQVIPRP	-0.0134
RRIRMRPPRLPRPRPRPERKPRP	2.06
RRIRDRPPRLPRPRPRPTIPPRP	0.0494
RRIRSRPPRLPRPRPRPCDMPRP	-0.184
RRIRRRPPRLPRPRPRPLTWPRP	0.845
RRIRCRPPRLPRPRPRPHLMPRP	-0.223
RRIRHRPPRLPRPRPRPDTKPRP	0.162
RRIRLRPPRLPRPRPRPSCNPRP	-0.661
RRIRRRPPRLPRPRPRPLLGPRP	0.504
RRIRMRPPRLPRPRPRPQMDPRP	0.224
RRIRDRPPRLPRPRPRPFFEPRP	0.219
RRIRMRPPRLPRPRPRPLKVPRP	0.153
RRIRERPPRLPRPRPRPVFLPRP	-0.474
RRIRFRPPRLPRPRPRPGWYPRP	-0.463
RRIRNRPPRLPRPRPRPGLLPRP	-0.171
RRIRERPPRLPRPRPRPTAGPRP	0.161
RRIRDRPPRLPRPRPRPSNMPRP	-0.0872
RRIRMRPPRLPRPRPRPVICPRP	0.00711
RRIRKRPPRLPRPRPRPAYKPRP	0.354
RRIRYRPPRLPRPRPRPWDCPRP	-0.00865
RRIRCRPPRLPRPRPRPARRPRP	0.555

Sequence	shrunken log2 fold change
RRIRQRPPRLPRPRPRPVHHPRP	0.04
RRIRWRPPRLPRPRPRPWHQPRP	0.00792
RRIRCRPPRLPRPRPRPACNPRP	-0.0286
RRIRQRPPRLPRPRPRPFRCPRP	-0.0452
RRIRWRPPRLPRPRPRPQHMPRP	-0.459
RRIRSRPPRLPRPRPRPPRFPRP	0.378
RRIRGRPPRLPRPRPRPVGSPRP	0.749
RRIRDRPPRLPRPRPRPNQTPRP	0.0331
RRIRLRPPRLPRPRPRPIFVPRP	-0.0836
RRIRIRPPRLPRPRPRPFYTPRP	-0.324
RRIRIRPPRLPRPRPRPFQPPRP	-0.407
RRIRCRPPRLPRPRPRPYPEPRP	-0.0664
RRIRRRPPRLPRPRPRPNAIPRP	-0.116
RRIRIRPPRLPRPRPRPTIIPRP	-0.848
RRIRPRPPRLPRPRPRPEHSPRP	-0.0353
RRIRFRPPRLPRPRPRPPNIPRP	-0.185
RRIRLRPPRLPRPRPRPMPEPRP	0.221
RRIRTRPPRLPRPRPRPTPPPRP	0.589
RRIRNRPPRLPRPRPRPKHMPRP	-0.382
RRIRPRPPRLPRPRPRPTFIPRP	-0.243
RRIRLRPPRLPRPRPRPVFRPRP	0.0694
RRIRYRPPRLPRPRPRPSFDPRP	-1.2
RRIRIRPPRLPRPRPRPVMFPRP	-0.255
RRIRCRPPRLPRPRPRPYLWPRP	-0.726
RRIRHRPPRLPRPRPRPYNMPRP	-0.186
